Consider one molecule from patent US20190040136A1 (AGENCY FOR SCIENCE TECHNOLOGY AND RESEARCH, published 2019).

Assay [1] addresses T1, Human LAG-3 coupled to human Fc (human, UniProt P18627 23-450, limits assumed).
T1 construct: also called LAG-3-Fc; human LAG-3-Fc; not shown: human Fc
T1 sequence (looked up): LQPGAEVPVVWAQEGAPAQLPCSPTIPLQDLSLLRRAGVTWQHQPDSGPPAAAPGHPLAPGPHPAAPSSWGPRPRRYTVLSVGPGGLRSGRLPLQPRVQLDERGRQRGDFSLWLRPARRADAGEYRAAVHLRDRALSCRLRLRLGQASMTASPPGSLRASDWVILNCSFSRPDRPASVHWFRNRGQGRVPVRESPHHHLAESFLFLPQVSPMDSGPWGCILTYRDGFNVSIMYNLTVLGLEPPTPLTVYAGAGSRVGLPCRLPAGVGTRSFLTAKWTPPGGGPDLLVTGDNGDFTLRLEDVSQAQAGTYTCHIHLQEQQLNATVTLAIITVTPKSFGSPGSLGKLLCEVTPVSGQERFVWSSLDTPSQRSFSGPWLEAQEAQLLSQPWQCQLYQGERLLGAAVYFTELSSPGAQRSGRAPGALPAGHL
Briefly: SPR (ProteOn XPR 36), human LAG-3-Fc immobilised, A6 Fab as analyte. The protocol:
(§1) Association and dissociation rates were measured with a ProteOn XPR 36 analyser (Biorad) and the affinity (KD) was calculated.

The target of assay [2] is T1, Human LAG-3 coupled to human Fc. Briefly: SPR (ProteOn XPR 36), human LAG-3-Fc immobilised, A6 Fab as analyte at five concentrations (L1A1-L1A5). The protocol:
as §1

Assay [3] has as its target T2, human LAG-3 coupled to phycoerythrin (human, UniProt P18627 23-450, limits assumed, coupled to phycoerythrin).
T2 construct: also called Labelled LAG-3
T2 sequence (looked up): T1 sequence (looked up)
Briefly: blocking assay, flow cytometry: phycoerythrin-coupled human LAG-3 pre-incubated with Fab, then binding to MHC class II on Daudi cells. (A flow cytometer gives signals particle by particle.)

For assay [4], the target named is T2, human LAG-3 coupled to phycoerythrin. Briefly: flow cytometry; inhibition of binding of PE-coupled human LAG-3 to MHC class II on Daudi cells. The protocol: Daudi cells were plated in 96-well plates and fixed/permeabilised in Fix/Perm buffer in the presence of anti-CD16/CD32 antibody. Premixes were added onto the Daudi cells and incubated for 30 minutes at 4° C. The cells were then washed three times in Perm/Wash buffer, resuspended in PBS and analysed by flow cytometry.

For assay [5] the target is unchanged. Briefly: blocking assay, flow cytometry: labelled LAG-3 pre-incubated with Fab, then binding to MHC class II on Daudi cells, mean fluorescence intensity.

B1: anti-LAG-3 antibody clone A6 Fab (Fab, V domains shown)
VH: EVQLVQSGAEVKKPGSSVKVSCKASGYTFTSYYMHWVRQAPGQGLEWMGIINPSGGSTSYAQKFQGRVTMTRDTSTSTVYMELSSLRSEDTAVYYCAMPFGDFDYWGQGTLVTVSS
VL: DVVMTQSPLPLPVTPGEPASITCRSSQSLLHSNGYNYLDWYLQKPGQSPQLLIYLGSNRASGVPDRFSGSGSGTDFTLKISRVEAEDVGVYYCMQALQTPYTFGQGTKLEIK
notes: Fab format, from a human phage display library; the constant domains of the Fab are not
Usually Kd stands for the equilibrium constant for the complex coming apart. Read a high Kd as weaker binding. What is called koff is the rate constant with which the complex falls apart. The term kon denotes a measure of how fast the partners come together. High values mean fast association, low ones slow association. Broadly, the IC50 is the concentration that gives 50% inhibition. A high value points to a need for much substance. On to B1, for which the Kd is 2.2 nM in assay [1] and 2.18 nM in assay [2]. For the same molecule, the koff in assay [2] was 0.000456 s⁻¹. Further, the kon in assay [2] came out at 209000 M⁻¹ s⁻¹. For the same molecule, the IC50 came to 111 nM in assay [3] and 62.2 nM in assay [4]. Further, in assay [5], the “IC50 (read off the curve)” value is roughly 60 nM.
